# Experimental data published in publication doi:10.1101/2025.11.11.687647v1.
# B1: MtPC (Mycobacterium tuberculosis pyruvate carboxylase) (Mycobacterium tuberculosis H37Rv) (protein)
# chain: MFSKVLVANRGEIAIRAFRAAYELGVGTVAVYPYEDRNSQHRLKADESYQIGDIGHPVHAYLSVDEIVATARRAGADAIYPGYGFLSENPDLAAACAAAGISFVGPSAEVLELAGNKSRAIAAAREAGLPVLMSSAPSASVDELLSVAAGMPFPLFVKAVAGGGGRGMRRVGDIAALPEAIEAASREAESAFGDPTVYLEQAVINPRHIEVQILADNLGDVIHLYERDCSVQRRHQKVIELAPAPHLDAELRYKMCVDAVAFARHIGYSCAGTVEFLLDERGEYVFIEMNPRVQVEHTVTEEITDVDLVASQLRIAAGETLEQLGLRQEDIAPHGAALQCRITTEDPANGFRPDTGRISALRTAGGAGVRLDGSTNLGAEISPYFDSMLVKLTCRGRDLPTAVSRARRAIAEFRIRGVSTNIPFLQAVLDDPDFRAGRVTTSFIDERPQLLTARASADRGTKILNFLADVTVNNPYGSRPSTIYPDDKLPDLDLRAAPPAGSKQRLVKLGPEGFARWLRESAAVGVTDTTFRDAHQSLLATRVRTSGLSRVAPYLARTMPQLLSVECWGGATYDVALRFLKEDPWERLATLRAAMPNICLQMLLRGRNTVGYTPYPEIVTSAFVQEATATGIDIFRIFDALNNIESMRPAIDAVRETGSAIAEVAMCYTGDLTDPGEQLYTLDYYLKLAEQIVDAGAHVLAIKDMAGLLRPPAAQRLVSALRSRFDLPVHLHTHDTPGGQLASYVAAWHAGADAVDGAAAPLAGTTSQPALSSIVAAAAHTEYDTGLSLSAVCALEPYWEALRKVYAPFESGLPGPTGRVYHHEIPGGQLSNLRQQAIALGLGDRFEEIEEAYAGADRVLGRLVKVTPTSKVVGDLALALVGAGVSADEFASDPARFGIPESVLGFLRGELGDPPGGWPEPLRTAALAGRGAARPTAQLAADDEIALSSVGAKRQATLNRLLFPSPTKEFNEHREAYGDTSQLSANQFFYGLRQGEEHRVKLERGVELLIGLEAISEPDERGMRTVMCILNGQLRPVLVRDRSIASAVPAAEKADRGNPGHIAAPFAGVVTVGVCVGERVGAGQTIATIEAMKMEAPITAPVAGTVERVAVSDTAQVEGGDLLVVVS
# Substrate: CC(=O)C(=O)O
# Experiment: purified protein
# Conditions: pH 8.0; 25.0 °C
protein,measurement,value
B1,Km,2310 µM
